Results from US7482329B2, “Single domain TDF-related compounds and analogs thereof” (Thrasos Therapeutics, priority 2002, dated 2009).
Entries after “also recorded” stand apart in the source; their conditions may differ. Where a SMILES comes first, the peptide text is derived from it.

B1: TDF-1: TDF-1 (BMP-7 or OP-1), bone morphogenetic protein-7; unlabeled control ligand in the binding and cell assays (protein)
chain: STGSKQRSQNRSKTPKNQEALRMANVAENSSSDQRQACKKHELYVSFRDLGWQDWIIAPEGYAAYYCEGECAFPLNSYMNATNHAIVQTLVHFINPETVPKPCCAPTQLNAISVLYFDDSSNVILKKYRNMVVRACGCH

Columns and labels:
[1] = system: IL-6 in HK2 human transformed kidney proximal tubule cells; experiment: IL-6 level in HK-2 cell medium after TNF-alpha stimulation (ELISA); type: cell-based; settings: for effect on level of IL-6 in HK2 cell medium: after TNF-alpha inflammatory stimulation, FIG. 6, FIG. 10
Experimental: The immortalized PTEC-derived HK-2 (Human Kidney-2) cells (ATCC number CRL-2190) were grown in serum-free keratinocyte medium (GIBCO number 17005-042) supplemented with epidermal growth factor (EGF: 5 ng/mL) and bovine pituitary extract (40 ug/mL) for 48 hours as described previously (Ryan et al (1994) Kidney International 45:48-57). Cells were transferred to 24-well plates at a density of 3×10^5 cells per well. After 24 hours, cells were incubated with fresh medium containing TNF-alpha (5 ng/mL) for 20 hours. Controls received medium alone. Then cells were washed twice with fresh culture medium and further incubated with culture medium alone (medium control, and TNF control wells) or TDF-1 at three different concentrations (40, 200 or 1000 ng/mL) or TDFRP compounds at three different concentrations (4, 20 or 100 uM) for sixty hours. During incubation, cells were kept in a 5% CO2 humid atmosphere at 37° C. At the end of the incubation, the media were removed and stored frozen until assayed. The concentrations of IL-6 and sICAM-in culture supernatants were measured by specific ELISA.
Dilute the capture antibody to the working concentration in PBS, pH 7.4 without carrier protein. Add 61 uL of stock antibody (360 ug/mL) to 10.939 mL of PBS, gently vertex. Immediately coat a 96 well microplate (Immulon 4 HBX) with 100 uL per well of the diluted capture antibody. Seal the plate and incubate it overnight in cold (4° C.). (PBS: 8.1 mM Na2HPO4, 1.5 mM KH2PO4, 137 mM NaCl, 2.7 mM KCl, pH 7.4, 0.2 um filtered). Next day empty the wells and wash the wells three times, each time using 340 uL of wash buffer per well. (wash buffer: PBS, pH 7.4 containing 0.05% Tween-20).
Prepare blocking buffer, 35 mL per plate. To prepare blocking buffer, add 0.35 grams of BSA and 1.75 grams of sucrose to 35 mL of PBS, pH 7.4, and mix the contents gently. Add 300 uL of blocking buffer to each well and incubate the plate for a minimum of 1 hour at room temperature. Empty the wells and wash wells three times, each time using 340 uL of wash buffer per well.
Prepare a 8 point standard curve using 2-fold serial dilutions in reagent diluent. Dilute stock standard, recombinant IL-6, 70 ng/mL to an initial concentration of 2400 ng/mL in reagent diluent. Then further dilute the standard to a working range, 1200, 600, 300, 150, 75, 37.5, 18.75 and 9.375 ng/mL using reagent diluent. (to prepare reagent diluent, add 0.4 grams of BSA to 40 mL of PBS, pH 7.4 and gently vertex). Also dilute 24 uL of each sample medium (from HK-2 cell cultures) with 376 uL of reagent diluent. Add 100 uL of standard or sample per well, seal the plate and incubate it overnight in cold (4° C.).
Next day, empty the wells and wash wells three times, each time using 340 uL of wash buffer per well. […]

[2] = system: end stage renal failure in a remnant kidney; settings: rats, administered systemically, remnant kidney (5/6 nephrectomy); cited from earlier work
[3] = system: unilateral ureteral obstruction; settings: rats, administered systemically, UUO; cited from earlier work
[4] = biological target: T1, BMPR-1A (ALK3) receptor extra cellular domain (Homo sapiens, UniProt P36894); experiment: Radio-ligand receptor binding assay, competition with 125I-labeled TDF-1 for ALK-3; settings: FIG. 1; cold ligand vs 125I-labeled TDF-1; read-out: ED50, displacing labeled TDF-1 from immobilized BMPR-1A receptor ECD
T1 construct: immobilized BMPR-1A receptor extra cellular domain (ECD)
Text: General protocol: These assays are based on competition between ^125I-labeled TDF-1 (BMP-7 or OP-1) and candidate TDFRP compounds or unlabeled TDF-1 for binding to respective receptors (ALK-3, ALK-6 or BMPR-2). In brief, the procedure involves immobilization of receptor on 96 well Removawell plates, blocking the wells with 3% BSA in PBS and subsequently washing the wells. Increasing concentrations of unlabeled TDF-1 or TDFRP compounds or control (unlabeled TDF-1) prepared in binding buffer are then added. Incubate plate for 1 hour at room temperature, and then add a fixed amount of ^125I-labeled TDF-1 (250,000 to 350,000 cpm) to the wells and further incubate in cold (4° C.) for 20 hours. Aspirate the contents of the wells and wash the wells four times with a wash buffer, and count the receptor bound ^125I-labeled TDF-1 in an auto gamma counter. B. HK-2 Cell Culture and Determination of Cytokine Production

T1 sequence (P36894 24-152 limits assumed, species assumed): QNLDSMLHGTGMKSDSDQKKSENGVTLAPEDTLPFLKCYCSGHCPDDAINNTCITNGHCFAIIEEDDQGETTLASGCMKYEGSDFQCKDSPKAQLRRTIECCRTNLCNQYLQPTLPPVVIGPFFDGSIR

Molecule | EC50 ([1]; HK2 cells, 5 ng/ml TNF-alpha stimulus, FIG. 6, read-out: ED50, lowering of IL-6 level) | effect on level of IL-6 in HK2 cell medium [1] | progression of end stage renal failure [2] | prophylaxis in unilateral ureteral obstruction [3] | EC50 [4]
CC(C)C[C@H](NC(=O)[C@@H](NC(=O)[C@H](CC(N)=O)NC(=O)[C@H](CO)NC(=O)[C@H](CO)NC(=O)[C@H](CC(=O)O)NC(=O)[C@H](CC(=O)O)NC(=O)[C@H](Cc1ccccc1)NC(=O)[C@H](Cc1ccc(O)cc1)NC(=O)[C@@H](N)CS)C(C)C)C(=O)N[C@@H](CS)C(=O)N[C@@H](CCCCN)C(=O)N[C@@H](CCCCN)C(=O)N[C@@H](Cc1ccc(O)cc1)C(=O)N[C@@H](CCCNC(=N)N)C(=O)N[C@@H](CO)C(=O)O [SEQ ID NO:45, CYFDDSSNVLCKKYRS] (H-CYFDDSSNVLCKKYRS-OH) | ~10 µM | reduces the level of cellular inflammation marker IL-6; also recorded: lowers the level of IL-6 in a dose dependent manner | – | – | –
B1 | – | lowers the level of IL-6 in a dose dependent manner; also recorded: brings the IL-6 level down below the basal level | halts the progression of end stage renal failure | short term prophylaxis | 0.0065 µM
